Assay results taken from paper PMC8794823.

How the values were obtained:
Assay in all cases: SPR
[1] = molecular target: CVB3/MKP3 (VP3-234Q) full particles (coxsackievirus B3, strain MKP)
[2] = molecular target: CVB3/GS12-55/GS/CHN/2012 (VP3-234V) full particles (coxsackievirus B3, isolate GS12-55/GS/CHN/2012)
[3] = molecular target: CVB3/HuN16-54/HuN/CHN/2016 (VP3-234D) full particles (coxsackievirus B3, isolate HuN16-54/HuN/CHN/2016)
[4] = molecular target: CVB3/XJ12-36/XJ/CHN/2012 (VP3-234N) full particles (coxsackievirus B3, isolate XJ12-36/XJ/CHN/2012)

Substance	Kd [1] [µM]	Kd [2] [µM]	Kd [3] [µM]	Kd [4] [µM]
soluble extracellular D1 and D2 domains of the human CAR protein (from UniProt P78310 20-236) (receptor)	3.16			
soluble extracellular domain of the human CD55 protein (from UniProt P08174 35-285) (receptor)	0.465	10	46	7.8
